Data: the supplement of paper PMC12764529
± gives the half width of the 95% confidence interval.

Legend:
[1] = folding stability dG unfold (combined trypsin and chymotrypsin); higher = more stable
How it was run: (§1)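 Mini-proteins designed to be under 80 residues and free of cysteine were carried in a PA-tagged cDNA display construct and digested with trypsin and with chymotrypsin. Each protease was applied at 11 threefold-diluted concentrations, alongside a no-protease condition, before sequencing. K50 came from Bayesian fitting of the sequencing counts, and unfolding free energy was obtained by comparing it with a sequence-predicted unfolded-state K50 and a shared folded-state K50, for each protease separately or for both together. Designs were retained only if their AlphaFold2 dimer inter-PAE exceeded 15.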

[2] = folding stability dG unfold from chymotrypsin proteolysis; higher = more stable
How it was run: as §1

[3] = folding stability dG unfold from trypsin proteolysis; higher = more stable
How it was run: as §1

Sequence	folding stability dG unfold [1]	folding stability dG unfold [2]	folding stability dG unfold [3]
SAGGSAGGSAGGRKLAIKIEIEEVKTETRIRPDGKTETRTELRIKIEIRPVPHPDDPELLSAGGSAGGSAGG [r7_523_TrROS_Hall]	2.34 ± 0.25 kcal/mol	1.95 ± 0.056 kcal/mol	2.99 ± 0.12 kcal/mol
SAGGSAGGSAGGRKRYRFKPGQRLEPRLVFRLKLRLELERDEDGNLSLKLELEIEEVRLLSAGGSAGGSAGG [r7_572_TrROS_Hall]	4.09 ± 0.29 kcal/mol	4.41 ± 0.098 kcal/mol	3.35 ± 0.13 kcal/mol
SAGGSAGGSAGGRLVVFEVKKDELNITGPGEARVVSVEELPGDRVRVVVEVPEGAVPGLASAGGSAGGSAGG [r17_48_TrMRF]	0.935 ± 0.12 kcal/mol	1.27 ± 0.066 kcal/mol	0.324 ± 0.084 kcal/mol
SAGGSAGGSAGGSADKNGYVKIPITVFTMERYGNGQPKMETVKVEIYVPPGESIEDLLQSAGGSAGGSAGGS [r4_283_TrROS]	0.247 ± 0.22 kcal/mol	0.166 ± 0.32 kcal/mol	0.0466 ± 0.19 kcal/mol
SAGGSAGGSAGGSAGVIVSLSPAPPSADTVVELPKGVTVTVTTVNGERVLTTLVPEALLSAGGSAGGSAGGS [r10_355_JUSTAS]	0.217 ± 0.048 kcal/mol	0.00971 ± 0.032 kcal/mol	0.365 ± 0.013 kcal/mol
SAGGSAGGSAGGSAKITIEYNPETNTLTVTITLENGEKVEITVPPNATLEEIEELAKKASAGGSAGGSAGGS [r4_205_TrROS_Hall]	3.04 ± 0.3 kcal/mol	2.49 ± 0.11 kcal/mol	3.41 ± 0.28 kcal/mol
SAGGSAGGSAGGSAPPKVEIEVTVLVKDEDGRLYVFKAKATFDLETNELTVEVEVYELPSAGGSAGGSAGGS [r4_445_TrROS_Hall]	4.66 ± 0.35 kcal/mol	4.79 ± 0.13 kcal/mol	3.22 ± 0.39 kcal/mol
SAGGSAGGSAGGSDDFVLRYRRRVRRKPKEVRLLPNGELVTGWEEEVSTFPVLTHPDDDSAGGSAGGSAGGS [r10_524_TrMRF]	0.448 ± 0.044 kcal/mol	0.5 ± 0.065 kcal/mol	0.239 ± 0.11 kcal/mol
SAGGSAGGSAGGSDNDGAKPPKIKVEIHPVNMPPGDIVVHNDHYVIAFPNGWFFVIRPKSAGGSAGGSAGGS [r4_394_TrROS]	1.32 ± 0.14 kcal/mol	1.61 ± 0.16 kcal/mol	0.911 ± 0.064 kcal/mol
SAGGSAGGSAGGSDNKAILGDVPIKFYDKNGKPVITAKIGYFPDGRVVIYFPDGSKIEASAGGSAGGSAGGS [r10_972_TrMRF]	1.25 ± 0.038 kcal/mol	1.04 ± 0.023 kcal/mol	1.48 ± 0.04 kcal/mol
SAGGSAGGSAGGSDNSITLDFFFNNYYIKITFNPWNGNLEIDEVQKVPPPPKPKDPGDKSAGGSAGGSAGGS [r4_21_TrROS]	2.94 ± 0.22 kcal/mol	3.19 ± 0.091 kcal/mol	2.71 ± 0.13 kcal/mol
SAGGSAGGSAGGSDTPGNYKKVKITLKRVTLGDNNTPKVETVELEVTVPPNYTLEDVLSSAGGSAGGSAGGS [r4_283_TrMRF]	1.14 ± 0.16 kcal/mol	1.1 ± 0.14 kcal/mol	0.976 ± 0.072 kcal/mol
SAGGSAGGSAGGSEEEIKKLAAEGGSFTATIPVVTPDGKPVEKTVTVEVKTDPKTGKLVSAGGSAGGSAGGS [r10_346_JUSTAS]	0.791 ± 0.083 kcal/mol	0.906 ± 0.025 kcal/mol	0.482 ± 0.043 kcal/mol
SAGGSAGGSAGGSEGAPIRVTLTGTRTETRTRPDGSPVTDSGTDTVEFTLDLYDPEKSGSAGGSAGGSAGGS [r4_450_TrMRF]	-0.363 ± 0.21 kcal/mol	-0.0249 ± 0.13 kcal/mol	-1.4 ± 0.66 kcal/mol
SAGGSAGGSAGGSEKPPIKLKIKVYDPETNELVSEVEVELEPGQSLEELLKKFDVVEIESAGGSAGGSAGGS [r4_187_TrROS_Hall]	2.66 ± 0.12 kcal/mol	2.94 ± 0.064 kcal/mol	1.71 ± 0.1 kcal/mol
SAGGSAGGSAGGSEVEVTTRPDGSIVARVRLPDGGVLTLVAEVGPDGSVVVTEASLSPESAGGSAGGSAGGS [r4_246_TrMRF]	1.66 ± 0.052 kcal/mol	1.94 ± 0.027 kcal/mol	0.856 ± 0.026 kcal/mol
SAGGSAGGSAGGSFDIEQERNPENGYHRVTIDFPNGPPVEIWMPPGSTLEQIEDLAKQFSAGGSAGGSAGGS [r4_205_TrROS]	0.878 ± 0.12 kcal/mol	0.658 ± 0.1 kcal/mol	1.07 ± 0.036 kcal/mol
SAGGSAGGSAGGSFEVVSVDETVTVPPGATVTIVVRDENGKLLTFTFEVRLVPPPPEEESAGGSAGGSAGGS [r10_573_TrROS_Hall]	1.86 ± 0.18 kcal/mol	1.95 ± 0.072 kcal/mol	1.58 ± 0.1 kcal/mol
SAGGSAGGSAGGSFKIKDIEVNPDALKKGNFIQIRIENGWVIHINPNGEIEVVELPPDASAGGSAGGSAGGS [r4_373_TrROS]	1.25 ± 0.095 kcal/mol	1.59 ± 0.072 kcal/mol	0.356 ± 0.083 kcal/mol
SAGGSAGGSAGGSGLYLRLFDPGTGNVVAEVRVEIAPDGSLIAEARVADVPPVEDPEKASAGGSAGGSAGGS [r4_178_TrMRF]	1.85 ± 0.17 kcal/mol	2.39 ± 0.072 kcal/mol	0.712 ± 0.048 kcal/mol
SAGGSAGGSAGGSGMKYKVTVTFPGGEVRSLEVDSVEEALEKLKEENRPIKEVTVEPLESAGGSAGGSAGGS [r4_213_JUSTAS]	2.44 ± 0.16 kcal/mol	2.54 ± 0.13 kcal/mol	2.2 ± 0.14 kcal/mol
